{"source": "paper doi:10.1101/2024.12.06.627168", "key": {"[1]": {"target": "MYC 304-354 WT (RBRIII) (UniProt P01106-1 304-354)", "sequence (P01106 319-369)": "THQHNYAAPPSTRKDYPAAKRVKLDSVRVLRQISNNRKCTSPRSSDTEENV", "assay": "fluorescence anisotropy"}, "[2]": {"target": "MYC 304-354 RBRIIIMUT (UniProt P01106-1 304-354, R316A;K317A;R331A;R334A;R340A;K341A)", "assay": "fluorescence anisotropy"}}}
{"binder": "GUGCAUGGGCAUGUGUGCUGUGUGUGUGCAGGCGACCGUAAACA (ssRNA)", "note": "[PTDSS2 RNA oligo]", "values": [{"measurement": "binding result", "setting": "[1]", "value": "binds"}, {"measurement": "binding result", "setting": "[2]", "value": "no binding"}]}
